What was measured:
Assay in all cases: pull-down; anti-FLAG M2 agarose beads bound to Swi1-FLAG (purified from swi3Δ cells) mixed with His6-Swi3 in lysis buffer A (50 mM Tris-HCl pH 8.0, 150 mM NaCl, 0.1% NP-40, 10% glycerol), 1 hour at 4°C, washed three times, Western blotting with anti-FLAG or His6 antibody
Details in all cases: both partners purified
Swi1 (750–971)-5FLAG = target: T1, Swi1 (750–971)-5FLAG (S. pombe, UniProt Q9UUM2 750-971)
T1 construct: also called C-terminal Swi1; Swi1 C-terminal region; source: S. pombe swi3Δ cells, nmt1 promoter, purified on anti-FLAG M2 agarose (500 mM NaCl washes); not shown: 5FLAG, C-terminal, kept
T1 sequence (looked up): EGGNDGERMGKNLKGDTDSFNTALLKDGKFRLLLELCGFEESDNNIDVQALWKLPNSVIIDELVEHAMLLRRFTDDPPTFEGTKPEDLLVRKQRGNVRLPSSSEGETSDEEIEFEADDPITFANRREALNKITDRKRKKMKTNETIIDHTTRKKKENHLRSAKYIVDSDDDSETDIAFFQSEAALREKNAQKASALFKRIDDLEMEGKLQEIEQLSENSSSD

[1] = target: T2, full-length Swi1 (1–971)-5FLAG (overexpressed from the nmt1 promoter) (S. pombe, UniProt Q9UUM2 1-971)
T2 construct: also called pREP-Swi1-5FLAG; Swi1-FLAG; source: S. pombe swi3Δ cells, nmt1 promoter, purified on anti-FLAG M2 agarose (500 mM NaCl washes); not shown: 5FLAG, C-terminal, kept
T2 sequence (looked up): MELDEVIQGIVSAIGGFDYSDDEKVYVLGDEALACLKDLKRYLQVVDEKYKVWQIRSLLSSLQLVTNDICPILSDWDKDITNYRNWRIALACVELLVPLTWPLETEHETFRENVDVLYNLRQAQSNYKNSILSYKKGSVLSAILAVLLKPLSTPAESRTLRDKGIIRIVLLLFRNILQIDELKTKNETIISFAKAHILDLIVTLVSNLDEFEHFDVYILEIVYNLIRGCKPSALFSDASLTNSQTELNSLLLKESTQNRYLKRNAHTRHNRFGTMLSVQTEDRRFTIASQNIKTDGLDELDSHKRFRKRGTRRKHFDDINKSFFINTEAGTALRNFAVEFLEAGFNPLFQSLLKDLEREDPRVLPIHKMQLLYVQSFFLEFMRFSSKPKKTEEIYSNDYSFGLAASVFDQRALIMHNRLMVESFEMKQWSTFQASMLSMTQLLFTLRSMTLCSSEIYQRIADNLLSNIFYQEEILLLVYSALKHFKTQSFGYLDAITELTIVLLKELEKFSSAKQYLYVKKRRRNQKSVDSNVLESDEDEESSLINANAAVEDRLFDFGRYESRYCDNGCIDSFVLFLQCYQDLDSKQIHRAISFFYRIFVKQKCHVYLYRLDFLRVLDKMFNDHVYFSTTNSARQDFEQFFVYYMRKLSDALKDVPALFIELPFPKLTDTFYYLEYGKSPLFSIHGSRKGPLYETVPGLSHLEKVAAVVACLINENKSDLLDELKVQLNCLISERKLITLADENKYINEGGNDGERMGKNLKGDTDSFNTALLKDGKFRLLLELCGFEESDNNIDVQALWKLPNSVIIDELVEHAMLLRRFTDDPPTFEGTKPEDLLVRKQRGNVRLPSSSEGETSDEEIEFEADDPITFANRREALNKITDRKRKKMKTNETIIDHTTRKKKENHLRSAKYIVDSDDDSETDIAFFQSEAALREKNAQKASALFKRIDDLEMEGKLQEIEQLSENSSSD

Swi1 (250–550)-5FLAG = target: T3, Swi1 (250–550)-5FLAG (S. pombe, UniProt Q9UUM2 250-550)
T3 construct: Swi1, S. pombe, amino acids 250–550 (contains an NLS and the DDT domain); also called DDT domain-containing region; pREP-Swi1(250–550)-5FLAG; source: S. pombe swi3Δ cells, nmt1 promoter, purified on anti-FLAG M2 agarose (500 mM NaCl washes); not shown: 5FLAG, C-terminal, kept
T3 sequence (looked up): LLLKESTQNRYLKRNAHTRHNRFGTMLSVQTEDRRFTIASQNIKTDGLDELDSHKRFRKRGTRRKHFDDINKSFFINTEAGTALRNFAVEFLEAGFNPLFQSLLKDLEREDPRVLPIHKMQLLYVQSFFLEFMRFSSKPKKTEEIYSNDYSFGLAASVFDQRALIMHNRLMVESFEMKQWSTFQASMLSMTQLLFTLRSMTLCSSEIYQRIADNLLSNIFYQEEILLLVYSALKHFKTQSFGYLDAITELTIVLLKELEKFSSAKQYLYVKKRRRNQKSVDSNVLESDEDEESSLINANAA

Measured: binding result

B1: hexahistidine-tagged Swi3 (His6-Swi3) (natural protein, S. pombe, UniProt O14350 1-181, looked up)
chain: MSTAASDSGVEKLVEENKREEVKKNEEEKEFDLGLEENPDSVKKPRKRLAKFDEERLISENGIPKLRKMMRKVKLKGKGHEAKDLKQLLGMYHIWTHELYPRATFDDSISYLKTLGKHRSVKVRRRGWINEIAVENGSDSNASLFTGPSSNSLVNLTSGDPYVQDTADDAFVAQDNDTQLE
notes: Swi3, S. pombe; swi3 open reading frame in the NdeI/XhoI site of pET28a; also called recombinant Swi3; pET28a-Swi3; source: E. coli BL21(DE3), purified (Ni-NTA)
binds: all assays above

— article PMC3431386, “Swi1 Associates with Chromatin through the DDT Domain and Recruits Swi3 to Preserve Genomic Integrity” (PLoS ONE, 2012)
